Patent US20100311955A1 (SHANHAI GUOJIAN BIO TECH INSTITUTE, published 2010)
Where “and” joins values, the source holds several entries; their conditions need not be identical. Identical values can stand only once.

T1: human CD34 (antigen on human myeloid leukemia cell KG-1a) (human, UniProt P28906 32-385)
T1 construct: whole, on cells; Target in all assays is CD34 on KG-1a cells, which highly express it; also called antigen CD34
T1 sequence (looked up): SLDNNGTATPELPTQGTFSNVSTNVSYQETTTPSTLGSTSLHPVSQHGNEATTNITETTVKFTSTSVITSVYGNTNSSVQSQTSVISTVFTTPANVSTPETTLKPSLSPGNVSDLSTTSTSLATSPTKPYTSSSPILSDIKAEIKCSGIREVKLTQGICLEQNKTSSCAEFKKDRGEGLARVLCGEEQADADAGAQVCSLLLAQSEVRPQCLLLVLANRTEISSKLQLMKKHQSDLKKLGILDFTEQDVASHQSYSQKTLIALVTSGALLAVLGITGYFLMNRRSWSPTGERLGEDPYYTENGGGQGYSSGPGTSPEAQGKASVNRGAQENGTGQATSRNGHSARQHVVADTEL


Legend:
[1] = biological target: human CD34 (antigen on human myeloid leukemia cell KG-1a) (human) (UniProt P28906); test: flow cytometry competition on KG-1a cells, competitor FITC-My10; single test
[2] = biological target: human CD34 (antigen on human myeloid leukemia cell KG-1a) (human) (UniProt P28906); test: flow cytometry competition on KG-1a cells, competitor FITC-My10; mean of 3 tests
[3] = biological target: T1, human CD34 (antigen on human myeloid …); test: as above
Method: (§1) Immunology. 2005, 116(4):487-98) was used as control. Triplicate tubes were set for each concentration of the competitive antibody. The IC₅₀ values were calculated, with the maximum fluorescence intensity indicating the average fluorescence intensity obtained in the absence of competitive antibody. Repeating this test for 3 times, and gaining statistical the result, see to Table 2.

[4] = biological target: T1, human CD34 (antigen on human myeloid …); test: flow cytometry competition on KG-1a cells, competitor FITC-My10; single test
Method: as §1

[5] = biological target: T1, human CD34 (antigen on human myeloid …); test: flow cytometry competition on KG-1a cells, competitor FITC-4C8
Method: A fixed subsaturating concentration of fluorescently labeled antibody FITC-4C8 and serial dilution of unlabeled purified antibodies were mixed respectively and then added into target KG-1a cells (1×10⁶/ml), and incubated at 4° C. for 60 min, the cells were washed twice with 1% FCS-PBS and examined by FCM using Cellquest software for analysis. Humanized anti-CD3 monoclonal antibody hu12F6 (preparation see to Li B H, Wang H, Dai J X, Ji J J, Qian W Z, Zhang D P, Hou S, Guo Y J. Construction and characterization of a humanized anti-human CD3 monoclonal antibody 12F6 with effective immunoregulation functions. Immunology 2005, 116(4):487-98) was used as control. Triplicate tubes were set for each concentration of the competitive antibody. The IC₅₀ values were calculated, with the maximum fluorescence intensity indicating the average fluorescence intensity obtained in the absence of competitive antibody.

Row | Molecule | IC50 [1] | IC50 [2] [µg/mL] | IC50 [3] [µg/mL] | IC50 [4] | IC50 [5] [µg/mL]
1 | murine-derived monoclonal antibody My10 (anti-CD34) | 8.67 µg/mL and 9.23 µg/mL and 8.18 µg/mL | 8.69 | – | – | –
2 | humanized antibody h4C8 (h4C8Hb/h4C8Lb) (antibody, human IgG1, V domains shown, CDR-grafted antibody with nine murine framework residues kept; also called humanized anti-CD34 antibody; hu4C8) VH: QIQLVQSGSELKKPGASVKVSCKASGYTFTNYGMNWVRQAPGQGLKWMGWINTNTGEPKYAEEFKGRFALSLDTSVSTAYLQINSLKAEDTAVYFCARGYGNYARGAWLAYWGQGTLVTVSS VL: DVLLTQSPLSLPVTLGQPASISCRSSQTIVHSNGNTYLEWFQQRPGQSPRLLIYQVSNRFSGVPDRFSGSGSGTDFTLKISRVEAEDVGVYYCFQGSHVPRTFGGGTKVEIKR | – | – | 1.09 | 1.11 µg/mL and 1.14 µg/mL and 1.02 µg/mL | 1.76
3 | chimeric antibody c4C8 (antibody, human IgG1, kappa, V domains shown, also called 4C8 chimeric antibody) VH: QIQLVQSGPELKKPGETVNISCKASGYTFTNYGMNWVKQAPGKGLKWMGWINTNTGEPKYAEEFKGRFALSLETSASTAYLQINNLKNEDTATYFCARGYGNYARGAWLAYWGQGTLVTVSA VL: DVLLTQTPLSLPVSLGDQASISCRSSQTIVHSNGNTYLEWFLQKPGQSPKLLIYQVSNRFSGVPDRFSGSGSGTDFTLKISRVEAEDLGVYYCFQGSHVPRTFGGGTKLEIKR | – | – | – | – | 1.69
4 | anti-human CD34 monoclonal antibody 4C8 (antibody, V domains shown, Mouse hybridoma antibody purified on Protein G; also called murine-derived monoclonal antibody 4C8; FITC-4C8) VH: QIQLVQSGPELKKPGETVNISCKASGYTFTNYGMNWVKQAPGKGLKWMGWINTNTGEPKYAEEFKGRFALSLETSASTAYLQINNLKNEDTATYFCARGYGNYARGAWLAYWGQGTLVTVSA VL: DVLLTQTPLSLPVSLGDQASISCRSSQTIVHSNGNTYLEWFLQKPGQSPKLLIYQVSNRFSGVPDRFSGSGSGTDFTLKISRVEAEDLGVYYCFQGSHVPRTFGGGTKLEIKR | – | – | – | – | 1.72
